Experimental data as given in the supplement of paper PMC10567573.

B1: RHOBTB3 (parent)
chain: DSCCPAGIFQAMCLLICAEMYQVS

Variants of: B1
Assay: protein stability index of a GFP-peptide fusion (GPS, HEK-293T) (PSI 1-6); higher = more stable
Settings: c terminus: a fixed tail appended
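Note: lentivirally expressed fusions sorted by FACS into six bins by GFP to DsRed ratio, PSI derived from sequencing read proportions per bin multiplied by bin number.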

Variant	protein stability index
DSCCPAGIFQAMCLLICHEMYQVS	3.29
DSCCPAGIFQAMCLLICLEMYQVS	2.35
DSCCPAGIFQAMCLLICCEMYQVS	2.87
RSCCPAGIFQAMCLLICAEMYQVS	2.64
NSCCPAGIFQAMCLLICAEMYQVS	3.73
ISCCPAGIFQAMCLLICAEMYQVS	2.69
ESCCPAGIFQAMCLLICAEMYQVS	2.3
PSCCPAGIFQAMCLLICAEMYQVS	1.89
SSCCPAGIFQAMCLLICAEMYQVS	2.77
ASCCPAGIFQAMCLLICAEMYQVS	3.58
MSCCPAGIFQAMCLLICAEMYQVS	3.85
TSCCPAGIFQAMCLLICAEMYQVS	3.52
DPCCPAGIFQAMCLLICAEMYQVS	2.93
DWCCPAGIFQAMCLLICAEMYQVS	3.17
DNCCPAGIFQAMCLLICAEMYQVS	3.1
DKCCPAGIFQAMCLLICAEMYQVS	4.66
DSCCPAGIFQIMCLLICAEMYQVS	2.4
DSCCPAGIFQKMCLLICAEMYQVS	1.32
DSCCPAGIFQAMCLLICAEMYQWS	3.16
DSCCPAGIFQAMCLLICAEMYQDS	1.45
DSCCPAGIFQAMCLLICAEMYQCS	3.74
DSCCPAGIFQAMCLLICAEMYQKS	2.33
DSCCPAGIFQAMCLLICAEMYQPS	2.88
DSCCPAGIFQAMCLLICAEMYQIS	4.12

Variant	protein stability index
DSCCPAGIFQAMCLLICAEMIQVS	4.41
DSCCPAGIFQAMCLLICAEMEQVS	2.38
DSCCPAGIFQAMCLLICAEMRQVS	2.92
DSCCPAGIFQAMCLLICAEMKQVS	1.9
DSCCPAGMFQAMCLLICAEMYQVS	1.95
DSCCPAGVFQAMCLLICAEMYQVS	3.73
DSCCPAGRFQAMCLLICAEMYQVS	2.55
DSCCPAGPFQAMCLLICAEMYQVS	1.68
DSCCPAGEFQAMCLLICAEMYQVS	1.48
DSCCPAGIFQAMCLLNCAEMYQVS	2.67
DSCCPAGIFQAMCLLECAEMYQVS	1.7
DSCCPAGIFQAMCLLMCAEMYQVS	2.51
DSCCPAGIFQAMCLLGCAEMYQVS	3.97
DSCCPAGIFQAMCLLDCAEMYQVS	1.34
DSCCPAGIFQAMCLLHCAEMYQVS	2.82
DSHCPAGIFQAMCLLICAEMYQVS	1.02
DSPCPAGIFQAMCLLICAEMYQVS	2.93
DSSCPAGIFQAMCLLICAEMYQVS	3.1
DSTCPAGIFQAMCLLICAEMYQVS	1.39
DSACPAGIFQAMCLLICAEMYQVS	3.18
DSCCPAGIFPAMCLLICAEMYQVS	2.72
DSCCPAGIFKAMCLLICAEMYQVS	3.05
DSCCPAGIFDAMCLLICAEMYQVS	2.75
DSCCPAGIFQAMCTLICAEMYQVS	2.78

Variant	protein stability index
DSCCPAGIFQAMCILICAEMYQVS	2.24
DSCCPAGIFQAMCALICAEMYQVS	3.65
DSCCLAGIFQAMCLLICAEMYQVS	2.87
DSCCAAGIFQAMCLLICAEMYQVS	1.65
DSCCNAGIFQAMCLLICAEMYQVS	3.01
DSCCKAGIFQAMCLLICAEMYQVS	2.16
DSCCIAGIFQAMCLLICAEMYQVS	2.61
DSCCPAGIFQAMCLLINAEMYQVS	3.58
DSCCPAGIFQAMCLLIRAEMYQVS	4.51
DSCCPAGIFQAMCLLITAEMYQVS	2.97
DSCCPAGIFQAMCLLIDAEMYQVS	1.91
DSCCPAGIFQAMCLLIHAEMYQVS	4.02
DSCHPAGIFQAMCLLICAEMYQVS	4.64
DSCFPAGIFQAMCLLICAEMYQVS	2.94
DSCVPAGIFQAMCLLICAEMYQVS	2.88
DSCTPAGIFQAMCLLICAEMYQVS	2.08
DSCMPAGIFQAMCLLICAEMYQVS	4
DSCQPAGIFQAMCLLICAEMYQVS	2.56
DSCPPAGIFQAMCLLICAEMYQVS	2.84
DSCGPAGIFQAMCLLICAEMYQVS	2.06
DSCCPAGIFQAYCLLICAEMYQVS	2.9
DSCCPAGIFQAQCLLICAEMYQVS	2.04
DSCCPAGIDQAMCLLICAEMYQVS	1.51
DSCCPAGIAQAMCLLICAEMYQVS	2.97

Variant	protein stability index
DSCCPAGIPQAMCLLICAEMYQVS	1.51
DSCCPANIFQAMCLLICAEMYQVS	2.19
DSCCPAHIFQAMCLLICAEMYQVS	2.75
DSCCPAIIFQAMCLLICAEMYQVS	3.28
DSCCPAYIFQAMCLLICAEMYQVS	2.8
DSCCPAGIFQAMCLLICALMYQVS	5.4
DSCCPAGIFQAMCLLICANMYQVS	2.31
DSCCPAGIFQAMCLLICAGMYQVS	2.99
DSCCPAGIFQAMCLLICAVMYQVS	3.28
DSCCPAGIFQAMCLLICASMYQVS	2.06
DSCCPAGIFQAMCLLICADMYQVS	2.72
DSCCPAGIFQAMCLLICAKMYQVS	2.48
DSCCPAGIFQAMCLLICAMMYQVS	1.55
DSCCPAGIFQAMCLLICAEMYGVS	3.65
DSCCPAGIFQAMCLLICAEMYRVS	3.1
DSCCPAGIFQAMCLLICAEMYIVS	2.2
DSCCPAGIFQAMCLLICAEMYWVS	2.54
DSCCPAGIFQAMCLLICAEMYVVS	3.65
DSCCPAGIFQAMCLLICAEMYTVS	3.27
DSCCPAGIFQAMCLLICAEMYDVS	2.17
DSCCPAGIFQAMCLLICAEMYAVS	3.15
DSCCPAGIFQAMCLLICAEMYSVS	2.99
